# Results as given in article PMC5717063.
# Experiments:
# [1] = biological target: mammalian wild-type HSP60 purified from porcine liver (porcine)
# [2] = biological target: mammalian wild-type HSP60 purified from porcine liver (porcine); assay: transmission electron microscopy; HSP60 alone, without nucleotide (Figure S1A)
# [3] = biological target: mammalian wild-type HSP60 purified from porcine liver (porcine); assay: transmission electron microscopy; HSP60 with HSP10 and ATP; side views classified, over 100 molecules counted
# [4] = biological target: mammalian wild-type HSP60 purified from porcine liver (porcine); assay: transmission electron microscopy; HSP60 alone with GTP; side views classified, over 100 molecules counted
# [5] = biological target: mammalian wild-type HSP60 purified from porcine liver (porcine); assay: transmission electron microscopy; HSP60 alone with ATP; side views classified, over 100 molecules counted
"refolding yield of chemically denatured rhodanese by HSP60/HSP10 in the presence of GTP (recovery of enzymatic activity, 60 min) [1] [%]",stoichiometry N [2],percent of HSP60 in double-ring structures [3] [%],percent of HSP60 as double-ring [4] [%],percent of HSP60 as double-ring (HSP60 14) [5] [%],stoichiometry N [5],Substance
40,,,,,,mammalian wild-type HSP10 purified from porcine liver (from UniProt F1SMZ6 1-102) (natural protein)
,7,70,20,40,14,mammalian wild-type HSP60 purified from porcine liver (natural protein)
